Common to all, as to assay type: in vivo
Assay [1] relates to corn. Description: Field trial: esterase on DAP fertilizer, corn yield. The conditions noted are these: 1, 2, or 3 fl oz fermentation product on 67.5 lb P/A DAP. How it is done: (§1) Esterase A (EstA) from Bacillus subtilis (SEQ ID NO:254) was produced via fermentation of a recombinantly produced enzyme in Bacillus subtilis. 1, 2, or 3 fl oz of fermentation product was applied onto 67.5 lb P/A (phosphate equivalent per acre) diammonium phosphate (DAP) fertilizer in a concrete mixer, and allowed to mix for 1 minute. A DAP control treatment without fermentation media was also created. DAP, alone or with fermentation media was distributed across 4 small replicated plots each prior to planting of corn with 4 replicates of 400 ft^2 each at each site.

Assay [2] concerns corn. The assay is described as follows: Field trial: esterase on urea with or without NBPT nitrogen stabilizer, corn yield. The note with it: 1, 2, or 3 fl oz fermentation product on 135 lb N/A urea, with or without 64 fl oz/ton NBPT. Here is the method:
as §1, with “135” for “67.5”, “N/A (nitrogen” for “P/A (phosphate”, “urea” for “diammonium phosphate (DAP)”, “urea” for “DAP”, “An addition treatment that contained 64 fl oz/ton N-Butyl-thiophosphoric triamide (NBPT) nitrogen stabilizer or 64 fl oz/ton NBPT nitrogen stabilizer with 3 fl oz/A EstA fermentation product was also included in the trial. Urea,” for “DAP,”, “ft2” for “ft^2”

In assay [3] the test system is winter wheat. Description: Field trial: esterase on urea fertilizer, winter wheat yield. The conditions noted are these: 1 fl oz or 2 fl oz fermentation product on 15 lb N/A urea. Here is the method:
Esterase A (EstA) from Bacillus subtilis (SEQ ID NO:254) was produced via fermentation of a recombinantly produced enzyme in Bacillus subtilis. 1 fl oz or 2 fl oz of fermentation product was applied onto 15 lb N/A (nitrogen equivalent per acre) urea fertilizer in a concrete mixer and allowed to mix for 1 minute. A urea control treatment without fermentation media was also created. urea, alone or with fermentation media was distributed across 4 small replicated plots prior to planting of winter wheat with 5 replicates of 300 ft^2 each at each site.

For assay [4], the system named is corn. The assay is described as follows: Field trial: esterase on MAP/DAP fertilizer, corn yield. The conditions noted are these: 2 fl oz/A EstA fermentation on MAP/DAP (72 lb/A Phosphate); base control 12798. Here is the method: Esterase A (EstA) from Bacillus subtilis (SEQ ID NO:254) was produced via fermentation of a recombinantly produced enzyme in Bacillus subtilis. 2 fl oz of fermentation product was applied onto either 72 lb P/A (phosphate equivalent per acre) monoammonium phosphate (MAP) fertilizer or diammonium phosphate (DAP) fertilizer in a concrete mixer, and allowed to mix for 1 minute. A MAP/DAP control treatment without fermentation media was also created. MAP or DAP, alone or with fermentation media was distributed across 4 small replicated plots each prior to planting of corn with 5 replicates of 400 ft2 each at each site (4 site with MAP, 4 sites with DAP, combined in data in Table 52 below).

Assay [5] deals with corn. Description: Field trial: EstA Esterase corn seed treatment, yield. The conditions noted are these: 2.5 fl oz/unit on hybrid corn seed; 16 sites. The text has this:
2.5 fl oz/unit of EstA Esterase from recombinant Bacillus subtilis fermentation (SEQ ID NO: 254) was coated onto hybrid corn seeds treated with Fludioxinil, Azoxystrobin, mefonoxam, and thiabendaz fungicides, cyantraniliproleinsecticide, peridium 1006 polymer, and (colorant). A control treatment without esterase enzyme was also created. The seed treated with esterase and control seed was planted in replicated trials distributed across 16 replicated plots with 4 replicates of 80 ft2 each at each site.

The subject of assay [6] is winter wheat. The assay is described as follows: Field trial: esterase on MAP fertilizer, winter wheat yield and vigor. The note with it: 1 fl oz/A EstA fermentation on MAP (15 lb/A Phosphate); MAP base control 4124.5. Here is the method: Esterase A (EstA) from Bacillus subtilis (SEQ ID NO:254) was produced via fermentation of a recombinantly produced enzyme in Bacillus subtilis. 1 fl oz of fermentation product was applied onto 15 lb P/A (phosphate equivalent per acre) monoammonium phosphate (MAP) fertilizer in a concrete mixer and allowed to mix for 1 minute. A MAP control treatment without fermentation media was also created. MAP, alone or with fermentation media was distributed across 4 small replicated plots prior to planting of winter wheat with 5 replicates of 300 ft^2 each at each site.

B1: EstA fermentation: Esterase A (EstA) from Bacillus subtilis (SEQ ID NO:254), fermentation product of recombinant Bacillus subtilis (protein, listed as Bacillus subtilis)
chain: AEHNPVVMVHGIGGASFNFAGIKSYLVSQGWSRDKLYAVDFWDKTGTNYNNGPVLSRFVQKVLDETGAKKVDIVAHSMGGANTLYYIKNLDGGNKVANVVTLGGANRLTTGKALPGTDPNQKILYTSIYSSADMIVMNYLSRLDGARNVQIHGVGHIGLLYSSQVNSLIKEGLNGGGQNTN
As to B1, the “yield vs DAP control (in words)” value in the assay on corn [1] is given as “increased the yield”. Besides, in the assay on corn [2], the “yield vs urea control and NBPT containing treatments (in words)” value was “increased the yield”. Further, in the assay with winter wheat [3], the “yield vs urea control (in words)” value is on record as “increased the yield”. The “Yield (Kg/ha)” value with corn [4] is 13077 Kg/ha; in the assay on winter wheat [6], 4224.7 Kg/ha. In addition, in the assay on corn [5], the “yield vs base seed treatment package (in words)” value is “increased the yield”.

(Values after patent US20260231954A1, “PESTICIDAL ENZYMES FOR USE ON NEMATODES, INSECTS, AND MOLLUSKS” (priority 2023, published 2026).)
